Source: US20240392004A1 (IMMUNOWAKE, published 2024)

Legend:
mouse PD-1 = target: T1, mouse PD-1 (mouse, UniProt Q02242 25-167, limits assumed); test: same value as Table 15 (measured in PD-L2-Fc format)
T1 construct: also called mPD-1
T1 sequence (looked up): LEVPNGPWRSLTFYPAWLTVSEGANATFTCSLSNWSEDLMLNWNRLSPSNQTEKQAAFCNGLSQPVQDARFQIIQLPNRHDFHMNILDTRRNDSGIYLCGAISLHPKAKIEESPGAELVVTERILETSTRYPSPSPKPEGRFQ

[1] = target: T2, human IL-2 receptor (IL-2Rα, IL-2Rβ, IL-2Rγ) (human, UniProt P01589 22-272; P14784 27-551; P31785 23-369); test: cell-based or functional assay
T2 sequence (looked up) 1: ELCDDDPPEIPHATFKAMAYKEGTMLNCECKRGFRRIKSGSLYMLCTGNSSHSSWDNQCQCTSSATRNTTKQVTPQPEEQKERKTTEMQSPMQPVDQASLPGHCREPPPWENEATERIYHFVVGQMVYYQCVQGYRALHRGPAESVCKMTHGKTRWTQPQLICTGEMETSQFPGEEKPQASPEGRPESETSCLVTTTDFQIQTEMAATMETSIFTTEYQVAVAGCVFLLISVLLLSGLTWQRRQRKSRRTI
T2 sequence (looked up) 2: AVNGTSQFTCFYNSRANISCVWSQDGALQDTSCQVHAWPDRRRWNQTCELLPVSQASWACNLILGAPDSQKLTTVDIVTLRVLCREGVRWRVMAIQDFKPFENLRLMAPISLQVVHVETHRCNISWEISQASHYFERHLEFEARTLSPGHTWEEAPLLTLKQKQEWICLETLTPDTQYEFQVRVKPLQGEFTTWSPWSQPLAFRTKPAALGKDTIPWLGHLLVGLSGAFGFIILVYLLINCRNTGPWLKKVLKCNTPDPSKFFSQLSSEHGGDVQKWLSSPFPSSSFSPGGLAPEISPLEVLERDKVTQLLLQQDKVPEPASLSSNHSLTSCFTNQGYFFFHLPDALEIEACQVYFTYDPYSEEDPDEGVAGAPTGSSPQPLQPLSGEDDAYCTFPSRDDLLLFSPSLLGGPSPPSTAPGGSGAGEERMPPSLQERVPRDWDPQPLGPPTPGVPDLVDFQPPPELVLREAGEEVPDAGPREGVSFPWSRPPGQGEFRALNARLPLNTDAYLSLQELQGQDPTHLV
T2 sequence (looked up) 3: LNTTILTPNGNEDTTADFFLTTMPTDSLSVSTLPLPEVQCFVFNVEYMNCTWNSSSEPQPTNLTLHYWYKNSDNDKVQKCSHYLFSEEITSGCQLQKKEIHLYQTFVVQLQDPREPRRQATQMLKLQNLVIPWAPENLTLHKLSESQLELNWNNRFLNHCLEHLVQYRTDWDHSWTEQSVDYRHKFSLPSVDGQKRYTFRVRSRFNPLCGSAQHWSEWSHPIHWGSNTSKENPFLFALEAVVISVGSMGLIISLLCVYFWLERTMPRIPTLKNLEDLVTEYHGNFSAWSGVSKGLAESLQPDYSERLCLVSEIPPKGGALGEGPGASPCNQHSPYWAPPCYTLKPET

[2] = target: T3, human TIGIT on HEK-Blue reporter cells (human, UniProt Q495A1 22-244); test: cell-based or functional assay
T3 sequence (looked up): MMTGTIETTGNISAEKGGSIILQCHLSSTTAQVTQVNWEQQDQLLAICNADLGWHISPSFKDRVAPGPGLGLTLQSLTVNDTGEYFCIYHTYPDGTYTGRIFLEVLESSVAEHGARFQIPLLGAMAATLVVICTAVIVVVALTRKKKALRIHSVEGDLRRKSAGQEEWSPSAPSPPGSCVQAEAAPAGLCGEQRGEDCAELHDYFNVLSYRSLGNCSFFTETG

[3] = target: T4, IFN-γ receptor (IFNGR1 and IFNGR2) (UniProt P15260 18-489; P38484 22-337, limits assumed); test: cell-based or functional assay
T4 sequence (looked up) 1: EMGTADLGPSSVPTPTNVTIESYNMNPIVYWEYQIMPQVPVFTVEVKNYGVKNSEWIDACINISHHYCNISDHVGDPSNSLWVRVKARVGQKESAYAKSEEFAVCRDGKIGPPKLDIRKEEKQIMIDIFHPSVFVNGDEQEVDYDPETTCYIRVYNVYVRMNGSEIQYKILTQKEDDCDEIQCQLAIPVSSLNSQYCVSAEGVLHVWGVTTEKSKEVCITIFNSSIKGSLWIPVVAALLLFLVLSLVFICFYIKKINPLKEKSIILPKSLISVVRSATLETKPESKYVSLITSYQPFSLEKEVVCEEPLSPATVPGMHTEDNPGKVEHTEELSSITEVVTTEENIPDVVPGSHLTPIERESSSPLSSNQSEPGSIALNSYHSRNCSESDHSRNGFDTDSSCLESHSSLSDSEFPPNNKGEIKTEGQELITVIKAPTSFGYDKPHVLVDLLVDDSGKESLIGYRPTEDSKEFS
T4 sequence (looked up) 2: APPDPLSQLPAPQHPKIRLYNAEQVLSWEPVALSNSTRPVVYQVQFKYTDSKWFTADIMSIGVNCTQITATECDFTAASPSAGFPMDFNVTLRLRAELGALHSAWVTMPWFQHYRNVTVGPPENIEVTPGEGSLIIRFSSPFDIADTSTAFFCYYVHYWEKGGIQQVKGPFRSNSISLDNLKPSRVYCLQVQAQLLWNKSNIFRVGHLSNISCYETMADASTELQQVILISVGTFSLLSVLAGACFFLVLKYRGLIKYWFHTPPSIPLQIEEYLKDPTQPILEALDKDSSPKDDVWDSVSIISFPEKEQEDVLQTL

[4] = target: human IL-12 receptor complex (IL-12Rβ1 and IL-12Rβ2) (human, UniProt P42701 24-662; Q99665 24-862); test: cell-based or functional assay
human IL-12 receptor complex (IL-12Rβ1 and IL-12Rβ2), sequence (Q99665 24-862, chain 2 of 2, other chains not shown): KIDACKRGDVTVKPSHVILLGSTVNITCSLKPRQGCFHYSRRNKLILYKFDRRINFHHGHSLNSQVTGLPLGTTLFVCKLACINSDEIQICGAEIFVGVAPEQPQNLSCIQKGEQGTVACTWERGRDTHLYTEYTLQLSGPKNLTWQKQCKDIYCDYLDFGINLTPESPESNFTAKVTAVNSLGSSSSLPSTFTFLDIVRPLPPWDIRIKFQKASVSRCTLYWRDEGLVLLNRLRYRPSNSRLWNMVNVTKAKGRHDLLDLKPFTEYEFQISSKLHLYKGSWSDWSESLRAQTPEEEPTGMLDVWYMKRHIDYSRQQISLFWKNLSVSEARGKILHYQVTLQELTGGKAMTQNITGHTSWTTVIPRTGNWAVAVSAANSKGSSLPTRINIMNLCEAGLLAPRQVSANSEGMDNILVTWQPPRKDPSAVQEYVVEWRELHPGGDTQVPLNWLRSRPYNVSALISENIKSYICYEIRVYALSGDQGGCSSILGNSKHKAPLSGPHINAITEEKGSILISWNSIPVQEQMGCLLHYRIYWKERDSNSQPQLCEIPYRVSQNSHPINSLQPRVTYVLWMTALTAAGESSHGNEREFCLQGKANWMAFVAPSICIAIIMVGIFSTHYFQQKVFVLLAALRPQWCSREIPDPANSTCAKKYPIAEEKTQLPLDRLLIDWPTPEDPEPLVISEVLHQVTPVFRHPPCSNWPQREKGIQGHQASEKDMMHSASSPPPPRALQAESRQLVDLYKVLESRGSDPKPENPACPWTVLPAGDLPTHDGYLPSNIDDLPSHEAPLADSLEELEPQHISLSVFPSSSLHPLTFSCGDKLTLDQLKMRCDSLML

B1: IL-12(E59A/F60A)/PD-L2(WT)-Fc (Fc fusion)
chain 1: LFTVTVPKELYIIEHGSNVTLECNFDTGSHVNLGAITASLQKVENDTSPHRERATLLEEQLPLGKASFHIPQVQVRDEGQYQCIIIYGVAWDYKYLTLKVKASYRKINTHILKVPETDEVELTCQATGYPLAEVSWPNVSVPANTSHSRTPEGLYQVTSVLRLKPPPGRNFSCVFWNTHVRELTLASIDLQSQMEPRTHPTGSGIWELKKDVYVVELDWYPDAPGEMVVLTCDTPEEDGITWTLDQSSEVLGSGKTLTIQVKAAGDAGQYTCHKGGEVLSHSLLLLHKKEDGIWSTDILKDQKEPKNKTFLRCEAKNYSGRFTCWWLTTISTDLTFSVKSSRGSSDPQGVTCGAATLSAERVRGDNKEYEYSVECQEDSACPAAEESLPIEVMVDAVHKLKYENYTSSFFIRDIIKPDPPKNLQLKPLKNSRQVEVSWEYPDTWSTPHSYFSLTFCVQVQGKSKREKKDRVFTDKTSATVICRKNASISVRAQDRYYSSSWSEWASVPCSGGGGSGGGGSGGGGSGGGGSGRNLPVATPDPGMFPCLHHSQNLLRAVSNMLQKARQTLEFYPCTSEEIDHEDITKDKTSTVEACLPLELTKNESCLNSRETSFITNGSCLASRKTSFMMALCLSSIYEDLKMYQVEFKTMNAKLLMDPKRQIFLDQNMLAVIDELMQALNFNSETVPQKSSLEEPDFYKTKIKLCILLHAFRIRAVTIDRVMSYLNASDKTHTCPPCPAPEDEGGPSVFLFPPKPKDTLMISRTPEVTCVVVDVSHEDPEVKFNWYVDGVEVHNAKTKPREEQYNSTYRVVSVLTVLHQDWLNGKEYKCKVSNKALPAPIEKTISKAKGQPREPQVYVYPPSREEMTKNQVSLTCLVKGFYPSDIAVEWESNGQPENNYKTTPPVLDEDGSFALVSKLTVDKSRWQQGNVFSCSVMHEALHNHYTQKSLSLSPGK
chain 2: LFTVTVPKELYIIEHGSNVTLECNFDTGSHVNLGAITASLQKVENDTSPHRERATLLEEQLPLGKASFHIPQVQVRDEGQYQCIIIYGVAWDYKYLTLKVKASYRKINTHILKVPETDEVELTCQATGYPLAEVSWPNVSVPANTSHSRTPEGLYQVTSVLRLKPPPGRNFSCVFWNTHVRELTLASIDLQSQMEPRTHPTGSGDKTHTCPPCPAPEKKGGPSVFLFPPKPKDTLMISRTPEVTCVVVDVSHEDPEVKFNWYVDGVEVHNAKTKPREEQYNSTYRVVSVLTVLHQDWLNGKEYKCKVSNKALPAPIEKTISKAKGQPREPQVYVLPPSREEMTKNQVSLLCLVKGFYPSDIAVEWESNGQPENRYMTWPPVLDSDGSFFLYSKLTVDKSRWQQGNVFSCSVMHEALHNHYTQKSLSLSPGK
notes: also called IL-12(E59A/F60A)/PD-L2-Fc; construct #29
- Kd (mouse PD-1): 980 nM

B2: anti-PD-1 antibody nivolumab (Opdivo) (antibody, human IgG4 S228P, kappa, V domains shown)
VH: QVQLVESGGGVVQPGRSLRLDCKASGITFSNSGMHWVRQAPGKGLEWVAVIWYDGSKRYYADSVKGRFTISRDNSKNTLFLQMNSLRAEDTAVYYCATNDDYWGQGTLVTVSS
VL: EIVLTQSPATLSLSPGERATLSCRASQSVSSYLAWYQQKPGQAPRLLIYDASNRATGIPARFSGSGSGTDFTLTISSLEPEDFAVYYCQQSSNWPRTFGQGTKVEIKR
- Percent IL-2 signal transduction (HEK-IL-2 reporter assay) [1]: 0%

B3: IFN-γ(A23V/A23V)/CD155-Fc/IL-12(E59A/F60A) (Fc fusion)
chain 1: WPPPGTGDVVVQAPTQVPGFLGDSVTLPCYLQVPNMEVTHVSQLTWARHGESGSMAVFHQTQGPSYSESKRLEFVAARLGAELRNASLRMFGLRVEDEGNYTCLFVTFPQGSRSVDIWLRVLAKPQNTAEVQKVQLTGEPVPMARCVSTGGRPPAQITWHSDLGGMPNTSQVPGFLSGTVTVTSLWILVPSSQVDGKNVTCKVEHESFEKPQLLTVNLTVYYPPEVSISGYDNNWYLGQNEATLTCDARSNPEPTGYNWSTTMGPLPPFAVAQGAQLLIRPVDKPINTTLICNVTNALGARQAELTVQVKEGPPSEHSGISRNGGGGSGGGDKTHTCPPCPAPEDEGGPSVFLFPPKPKDTLMISRTPEVTCVVVDVSHEDPEVKFNWYVDGVEVHNAKTKPREEQYNSTYRVVSVLTVLHQDWLNGKEYKCKVSNKALPAPIEKTISKAKGQPREPQVYVYPPSREEMTKNQVSLTCLVKGFYPSDIAVEWESNGQPENNYKTTPPVLDEDGSFALVSKLTVDKSRWQQGNVFSCSVMHEALHNHYTQKSLSLSPGKGGGGSGGGIWELKKDVYVVELDWYPDAPGEMVVLTCDTPEEDGITWTLDQSSEVLGSGKTLTIQVKAAGDAGQYTCHKGGEVLSHSLLLLHKKEDGIWSTDILKDQKEPKNKTFLRCEAKNYSGRFTCWWLTTISTDLTFSVKSSRGSSDPQGVTCGAATLSAERVRGDNKEYEYSVECQEDSACPAAEESLPIEVMVDAVHKLKYENYTSSFFIRDIIKPDPPKNLQLKPLKNSRQVEVSWEYPDTWSTPHSYFSLTFCVQVQGKSKREKKDRVFTDKTSATVICRKNASISVRAQDRYYSSSWSEWASVPCSGGGGSGGGSGGGGSRNLPVATPDPGMFPCLHHSQNLLRAVSNMLQKARQTLEFYPCTSEEIDHEDITKDKTSTVEACLPLELTKNESCLNSRETSFITNGSCLASRKTSFMMALCLSSIYEDLKMYQVEFKTMNAKLLMDPKRQIFLDQNMLAVIDELMQALNFNSETVPQKSSLEEPDFYKTKIKLCILLHAFRIRAVTIDRVMSYLNAS
chain 2: WPPPGTGDVVVQAPTQVPGFLGDSVTLPCYLQVPNMEVTHVSQLTWARHGESGSMAVFHQTQGPSYSESKRLEFVAARLGAELRNASLRMFGLRVEDEGNYTCLFVTFPQGSRSVDIWLRVLAKPQNTAEVQKVQLTGEPVPMARCVSTGGRPPAQITWHSDLGGMPNTSQVPGFLSGTVTVTSLWILVPSSQVDGKNVTCKVEHESFEKPQLLTVNLTVYYPPEVSISGYDNNWYLGQNEATLTCDARSNPEPTGYNWSTTMGPLPPFAVAQGAQLLIRPVDKPINTTLICNVTNALGARQAELTVQVKEGPPSEHSGISRNGGGSGQDPYVKEAENLKKYFNAGHSDVVDNGTLFLGILKNWKEESDRKIMQSQIVSFYFKLFKNFKDDQSIQKSVETIKEDMNVKFFNSNKKKRDDFEKLTNYSVTDLNVQRKAIHELIQVMAELSPAAKTGKRKRSQMLFRGGGGSGGGGSGGGGSGGGGSQDPYVKEAENLKKYFNAGHSDVVDNGTLFLGILKNWKEESDRKIMQSQIVSFYFKLFKNFKDDQSIQKSVETIKEDMNVKFFNSNKKKRDDFEKLTNYSVTDLNVQRKAIHELIQVMAELSPAAKTGKRKRSQMLFRGGGGGSGGGDKTHTCPPCPAPEKKGGPSVFLFPPKPKDTLMISRTPEVTCVVVDVSHEDPEVKFNWYVDGVEVHNAKTKPREEQYNSTYRVVSVLTVLHQDWLNGKEYKCKVSNKALPAPIEKTISKAKGQPREPQVYVLPPSREEMTKNQVSLLCLVKGFYPSDIAVEWESNGQPENRYMTWPPVLDSDGSFFLYSKLTVDKSRWQQGNVFSCSVMHEALHNHYTQKSLSLSPGK
- IL-12 signal transduction, HEK-IL-12-TIGIT [2]: 60%
- IFN-γ signal transduction, HEK-IFN-γ [3]: < 0.2%
- IL-12 signal transduction, HEK-IL-12 [4]: 2%
